How the values were obtained:
Assay in all cases: SPR
Conditions in all cases: scFv
[1] = target: H5VN04 (influenza A virus H5VN04 (H5N1))
[2] = target: H5 (influenza A virus H5VN04 (H5N1))
[3] = target: H5 (influenza A virus H5VN04 (H5N1)); remark: listed apart in the source
[4] = target: H5 (influenza A virus H5VN04 (H5N1)); remark: listed apart in the source

Substance | Kd [1] [nM] | Kd [2] [nM] | Kd [3] [nM] | Kd [4] [nM]
CR6261 wt | 0.34 | – | – | –
F10 | – | 270 | 1.2 | 0.1
F10 wt | 0.1 | – | – | –

— patent publication US20220135655A1
